T1: Macaca mulatta TF on RF/6A cells (Macaca mulatta (protein sequence stated …, UniProt P13726 33-294 (human entry)))
T1 construct: Endogenous TF of the RF/6A cell line; also called TF-positive Macaca mulatta RF/6A cells; cynomolgus TF
T1 chain: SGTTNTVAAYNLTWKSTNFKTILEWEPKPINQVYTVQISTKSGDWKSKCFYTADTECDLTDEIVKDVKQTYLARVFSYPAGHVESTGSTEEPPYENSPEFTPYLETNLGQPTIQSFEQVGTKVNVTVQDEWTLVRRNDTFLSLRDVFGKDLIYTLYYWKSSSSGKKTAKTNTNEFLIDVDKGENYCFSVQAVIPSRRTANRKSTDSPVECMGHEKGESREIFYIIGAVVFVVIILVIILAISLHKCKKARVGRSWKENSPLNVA


Columns and labels:
human Tissue Factor (TF) [1] = molecular target: T2, human Tissue Factor (TF) (human, UniProt P13726 33-295); assay: flow cytometry, MDA-MB-231 cells; competitor 20 nM FVII-Fc-Alexa488; antibody at 28 nM
T2 construct: also called hTF; CD142
Experimental: (§1) After another 1 hr incubation on ice, cells were washed, stained with a viability dye, and analyzed by flow cytometry. The Alexa488 fluorescence data from viable cells was summarized using median fluorescence intensity.

human Tissue Factor (TF) [2] = molecular target: T2, human Tissue Factor (TF); assay: cell-based or functional assay
human Tissue Factor (TF) [3] = molecular target: T2, human Tissue Factor (TF); assay: cell-based or functional assay; remark: listed apart in the source
human Tissue Factor (TF) [4] = molecular target: T2, human Tissue Factor (TF); assay: cell-based or functional assay; remark: listed apart in the source
human Tissue Factor (TF) [5] = molecular target: T2, human Tissue Factor (TF); assay: flow cytometry, MDA-MB-231 cells; competitor 20 nM FVII-Fc-Alexa488; antibody at 250 nM
Experimental: as §1

human Tissue Factor (TF) [6] = molecular target: T2, human Tissue Factor (TF); assay: flow cytometry, MDA-MB-231 cells; competitor 20 nM FVII-Fc-Alexa488; antibody at 9.25 nM
Experimental: as §1

human Tissue Factor (TF) [7] = molecular target: T2, human Tissue Factor (TF); assay: flow cytometry, A431 cells; antibody at 100 nM; competitor 20 nM 25A-Alexa488
Experimental: as §1

human Tissue Factor (TF) [8] = molecular target: T2, human Tissue Factor (TF); assay: flow cytometry, A431 cells; antibody at 100 nM; competitor 20 nM 43Ea-Alexa488
Experimental: as §1

human Tissue Factor (TF) [9] = molecular target: T2, human Tissue Factor (TF); assay: flow cytometry, MDA-MB-231 cells; competitor 20 nM FVII-Fc-Alexa488; antibody at 83 nM
Experimental: as §1

Expi293-derived TF-His = molecular target: T3, Expi293-derived TF-His (human (Example 17 does not restate the …, UniProt P13726 33-251)); assay: protein ELISA, plate coated with Expi293-derived TF-His, antibody titrated, HRP secondary, luminescence
T3 construct: Glycosylated TF ECD-His6 from Expi293 cells; also called Expi293-derived TF protein; TF ECD-His6
Experimental: (§2) Plates coated with Expi293- or E. coli-derived TF-His were incubated with increasing concentrations of antibodies.

[10] = molecular target: T1, Macaca mulatta TF on RF/6A cells; assay: flow cytometry, IgG1 titrated on TF-positive Macaca mulatta RF/6A cells, 4-parameter fit
Experimental: After 2 washes, dead cells were labeled with TO-PRO-3 Iodide (ThermoFisher Scientific) and samples were analyzed on a CytoFLEX flow cytometer (Beckman Coulter, Brea, CA, USA) or Novocyte flow cytometer (ACEA Biosciences, San Diego, CA, USA). The median fluorescence intensities (MFIs) at each dilution were plotted and cell EC₅₀'s were derived using a 4-parameter binding model in Prism (GraphPad, La Jolla, CA, USA).

E. coli-derived TF = molecular target: T4, E. coli-derived TF (human (Example 17 does not restate the …, UniProt P13726 33-251)); assay: protein ELISA, plate coated with E. coli-derived TF-His, antibody titrated, HRP secondary, luminescence
T4 construct: also called E. coli-derived TF-His; E. coli-derived TF protein
Experimental: as §2

Binder	% FVIIa (human Tissue Factor (TF) [1])	% GM-CSF at 2.56 nM antibody (human Tissue Factor (TF) [2])	% GM-CSF at 6.4 nM antibody (human Tissue Factor (TF) [2])	% GM-CSF at 16 nM antibody (human Tissue Factor (TF) [2])	% GM-CSF at 40 nM antibody (human Tissue Factor (TF) [2])	% GM-CSF at 100 nM antibody (human Tissue Factor (TF) [2])	% IL8 at 2.56 nM antibody (human Tissue Factor (TF) [3])	% IL8 at 6.4 nM antibody (human Tissue Factor (TF) [3])	% IL8 at 16 nM antibody (human Tissue Factor (TF) [3])	% IL8 at 40 nM antibody (human Tissue Factor (TF) [3])	% IL8 at 100 nM antibody (human Tissue Factor (TF) [3])	% FXa at 12.5 nM antibody (human Tissue Factor (TF) [4])	% FVIIa (human Tissue Factor (TF) [5])	% FVIIa (human Tissue Factor (TF) [6])	% 25A binding (human Tissue Factor (TF) [7])	% 43Ea binding (human Tissue Factor (TF) [8])	% FVIIa (human Tissue Factor (TF) [9])	EC50 (Expi293-derived TF-His)	EC50 [10]	EC50 (E. coli-derived TF)	also measured
54E (antibody, human IgG1, V domains shown, Human IgG1; also called antibody designated 54E) VH: QVQLVQSGAEVKKPGASVKVSCKASGYTFANYYMHWVRQAPGQGLEWMGIINPSGGITVYAQKFQGRVTMTRDTSTSTVYMELSSLRSEDTAVYYCARGGSKVAALAFDIWGQGTMVTVSS VL: DIQMTQSPSSLSASVGDRVTITCQASQDISNSLNWYQQKPGKAPKLLIYDASNLETGVPSRFSGSRSGTDFTFTISSLQPEDIATYYCQQYNFHPLTFGGGTKVEIK [54E, listing 1 of 2 here]	3%	38%	10%	5%	5%	5%	48%	8%	3%	2%	2%	53%	2%	11%	99%	96%	3%				% FXa at 25 nM antibody (human Tissue Factor (TF) [4]): 44%; % FXa at 50 nM antibody (human Tissue Factor (TF) [4]): 41%; % FXa at 100 nM antibody (human Tissue Factor (TF) [4]): 42%
1F (antibody, human IgG1, V domains shown, Human IgG1; also called antibody designated 1F) VH: EVQLLESGGGLVQPGGSLRLSCAASGFTFSDYAMGWVRQAPGKGLEWVSTISGSGGLTYYADSVKGRFTISRDNSKNTLYLQMNSLRAEDTAVYYCAKAPYGYYMDVWGKGTTVTVSS VL: not shown	7%	27%	8%	6%	6%	6%	18%	3%	2%	2%	2%		6%	7%	95%	77%	7%				
1G (antibody, human IgG1, V domains shown, Human IgG1; also called antibody designated 1G) VH: EVQLLESGGGLVQPGGSLRLSCAASGFTFSSYAMAWVRQAPGKGLEWVSAISGSGGLTYYADSVKGRFTISRDNSKNTLYLQMNSLRAEDTAVYYCAKAPYGYYMDVWGKGTTVTVSS VL: not shown	7%	34%	9%	7%	7%	7%	26%	4%	3%	2%	2%	55%	6%	7%	75%	58%	7%				% FXa at 25 nM antibody (human Tissue Factor (TF) [4]): 48%; % FXa at 50 nM antibody (human Tissue Factor (TF) [4]): 41%; % FXa at 100 nM antibody (human Tissue Factor (TF) [4]): 41%
29D (antibody, human IgG1, V domains shown, Human IgG1; also called antibody designated 29D) VH: QVQLVESGGGVVQPGRSLRLSCAASGFTFHSRGMHWVRQAPGKGLEWVAVITYDGINKYYADSVEGRFTISRDNSKNTLYLQMNSLRAEDTAVYYCARDGVYYGVYDYWGQGTLVTVSS VL: not shown	4%	38%	15%	7%	6%	5%	27%	6%	2%	2%	1%	85%	3%	6%	70%	64%	3%				% FXa at 25 nM antibody (human Tissue Factor (TF) [4]): 77%; % FXa at 50 nM antibody (human Tissue Factor (TF) [4]): 75%; % FXa at 100 nM antibody (human Tissue Factor (TF) [4]): 75%
29E (antibody, human IgG1, V domains shown, Human IgG1; also called antibody designated 29E) VH: QVQLVESGGGVVQPGRSLRLSCAASGFTFRSYGMHWVRQAPGKGLEWVAVITYDGINKYYADSVEGRFTISRDNSKNTLYLQMNSLRAEDTAVYYCARDGVYYGVYDYWGQGTLVTVSS VL: not shown [29E, listing 1 of 2 here]	3%	33%	9%	5%	6%	6%	33%	5%	2%	2%	2%	81%	2%	5%	96%	85%	2%				% FXa at 25 nM antibody (human Tissue Factor (TF) [4]): 68%; % FXa at 50 nM antibody (human Tissue Factor (TF) [4]): 63%; % FXa at 100 nM antibody (human Tissue Factor (TF) [4]): 66%
25A (antibody, human IgG1, V domains shown, Human IgG1; also called antibody designated 25A) VH: QVQLVQSGAEVKKPGASVKVSCKASGYTFDVYGISWVRQAPGQGLEWMGWIAPYNGNTNYAQKLQGRVTMTTDTSTSTAYMELRSLRSDDTAVYYCARDAGTYSPFGYGMDVWGQGTTVTVSS VL: DIQMTQSPSTLSASVGDRVTITCRASQSISSWLAWYQQKPGKAPKLLIYKASSLESGVPSRFSGSGSGTEFTLTISSLQPDDFATYYCQQFQSLPPFTFGGGTKVEIK																		0.54 nM	0.43 nM	0.35 nM	
25A3 (antibody, human IgG1, V domains shown, Human IgG1; also called antibody designated 25A3) VH: QVQLVQSGAEVKKPGASVKVSCKASGYTFDVYGISWVRQAPGQGLEWMGWIAPYSGNTNYAQKLQGRVTMTTDTSTSTAYMELRSLRSDDTAVYYCARDAGTYSPFGYGMDVWGQGTTVTVSS VL: DIQMTQSPSTLSASVGDRVTITCQASQSINNWLAWYQQKPGKAPKLLIYKAYNLESGVPSRFSGSGSGTEFTLTISSLQPDDFATYYCQLFQSLPPFTFGGGTKVEIK																		0.47 nM	0.27 nM	0.36 nM	
25G1 (antibody, human IgG1, V domains shown, Human IgG1; also called antibody designated 25G1) VH: QVQLVQSGAEVKKPGASVKVSCKASGYTFRSYGISWVRQAPGQGLEWMGWVAPYSGNTNYAQKLQGRVTMTTDTSTSTAYMELRSLRSDDTAVYYCARDAGTYSPYGYGMDVWGQGTTVTVSS VL: DIQMTQSPSTLSASVGDRVTITCRASHSIDSWLAWYQQKPGKAPKLLIYKASYLESGVPSRFSGSGSGTEFTLTISSLQPDDFATYYCQLFQSLPPFTFGGGTKVEIK																		0.42 nM	0.27 nM	0.31 nM	
29E (antibody, human IgG1, V domains shown, Human IgG1; also called antibody designated 29E) VH: QVQLVESGGGVVQPGRSLRLSCAASGFTFRSYGMHWVRQAPGKGLEWVAVITYDGINKYYADSVEGRFTISRDNSKNTLYLQMNSLRAEDTAVYYCARDGVYYGVYDYWGQGTLVTVSS VL: not shown [29E, listing 2 of 2 here]																		0.98 nM	0.53 nM	0.68 nM	
54E (antibody, human IgG1, V domains shown, Human IgG1; also called antibody designated 54E) VH: QVQLVQSGAEVKKPGASVKVSCKASGYTFANYYMHWVRQAPGQGLEWMGIINPSGGITVYAQKFQGRVTMTRDTSTSTVYMELSSLRSEDTAVYYCARGGSKVAALAFDIWGQGTMVTVSS VL: DIQMTQSPSSLSASVGDRVTITCQASQDISNSLNWYQQKPGKAPKLLIYDASNLETGVPSRFSGSRSGTDFTFTISSLQPEDIATYYCQQYNFHPLTFGGGTKVEIK [54E, listing 2 of 2 here]																		0.96 nM	1.28 nM	0.38 nM	

From US20250361322A1 (ICONIC THERAPEUTICS, published 2025)
